# This sample holds only a part of the variants without activity.
# What was measured:
# biotinyl-Trp-oxazolone = test: self-aminoacylation, catalytic enhancement (BWO) (fold over background); higher = more active; k-Seq, kA / k0A0; sequences stand for … in GGGAAUGGAUCCACAUCUACGAAUUC…UUCACUGCAGACUUGACGAAGCUG
# Outline: (§1)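 Working in 50 μL HEPES/NaCl/KCl/MgCl2/CaCl2 buffer with 5% acetonitrile at pH 6.9–7.0, mutagenized RNA pools (0.43 μM; 21-nt variable region) were reacted with 2–1250 μM of each biotinyl-aminoacyl-oxazolone for 90 minutes at room temperature. Streptavidin capture followed, with quantification by triplicate qPCR and Illumina sequencing. Catalytic enhancement is reported as median kA over the uncatalyzed rate, the low-activity peak of a bimodal Gaussian fit to the data.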
# biotinyl-Ile-oxazolone = test: self-aminoacylation, catalytic enhancement (BIO) (fold over background); higher = more active; k-Seq, kA / k0A0; sequences stand for … in GGGAAUGGAUCCACAUCUACGAAUUC…UUCACUGCAGACUUGACGAAGCUG
# Outline: as §1
# biotinyl-Met-oxazolone = test: self-aminoacylation, catalytic enhancement (BMO) (fold over background); higher = more active; k-Seq, kA / k0A0; sequences stand for … in GGGAAUGGAUCCACAUCUACGAAUUC…UUCACUGCAGACUUGACGAAGCUG
# Outline: as §1
# biotinyl-Val-oxazolone = test: self-aminoacylation, catalytic enhancement (BVO) (fold over background); higher = more active; k-Seq, kA / k0A0; sequences stand for … in GGGAAUGGAUCCACAUCUACGAAUUC…UUCACUGCAGACUUGACGAAGCUG
# Outline: as §1
# biotinyl-Leu-oxazolone = test: self-aminoacylation, catalytic enhancement (BLO) (fold over background); higher = more active; k-Seq, kA / k0A0; sequences stand for … in GGGAAUGGAUCCACAUCUACGAAUUC…UUCACUGCAGACUUGACGAAGCUG
# Outline: as §1
# biotinyl-Phe-oxazolone = test: self-aminoacylation, catalytic enhancement (BFO) (fold over background); higher = more active; k-Seq, kA / k0A0; sequences stand for … in GGGAAUGGAUCCACAUCUACGAAUUC…UUCACUGCAGACUUGACGAAGCUG
# Outline: as §1
Sequence,self-aminoacylation (biotinyl-Trp-oxazolone),self-aminoacylation (biotinyl-Ile-oxazolone),self-aminoacylation (biotinyl-Met-oxazolone),self-aminoacylation (biotinyl-Val-oxazolone),self-aminoacylation (biotinyl-Leu-oxazolone),self-aminoacylation (biotinyl-Phe-oxazolone)
ACGUUUGCUAAUAGUCGAAAG [Fam3.1 aminoacylation ribozyme variant],2.68,1.37,1.58,1.24,1.09,5.96
ACGUUUGCUAAUAGUCUCAAG [Fam3.1 aminoacylation ribozyme variant],2.15,1.11,0.921,1.13,1.02,3.28
ACGUUUGCUAAUAGUGGCAAG [Fam3.1 aminoacylation ribozyme variant],0.59,0.853,0.75,0.741,0.804,0.738
ACGUUUGCUAAUAGUUGCAAG [Fam3.1 aminoacylation ribozyme variant],1.15,1.45,1.26,1.17,1.33,2.12
ACGUUUGCUAUUAGUCGCAAG [Fam3.1 aminoacylation ribozyme variant],2.22,1.5,1.67,1.21,1.18,1.31
ACUACCCUGCUCAUCGAGUGA [Fam2.1 aminoacylation ribozyme variant],1.93,1.37,1.45,1.85,2.44,2.39
ACUACCCUGGACAUCGAGUGA [Fam2.1 aminoacylation ribozyme variant],7.37,2.55,7.03,2.92,6.83,20.6
ACUACCCUGGGCAUCGAGUGA [Fam2.1 aminoacylation ribozyme variant],6.86,3.65,7.11,4.49,7.95,41.4
ACUACCCUGGUCAACGAGUGA [Fam2.1 aminoacylation ribozyme variant],6.49,3.48,5.53,3.82,5.55,17
ACUACCCUGGUCAUCAAGUGA [Fam2.1 aminoacylation ribozyme variant],2.76,1.67,3.19,1.67,2.37,5.04
ACUACCCUGGUCAUCGAGCGA [Fam2.1 aminoacylation ribozyme variant],1.82,2.04,1.91,1.94,1.95,2.05
ACUACCCUGGUCAUCGAGUAA [Fam2.1 aminoacylation ribozyme variant],8,3.33,9.42,3.99,8.99,20.1
ACUACCCUGGUCAUCGAGUGU [Fam2.1 aminoacylation ribozyme variant],53.1,16.3,58.6,20.3,59.7,409
ACUACCCUGGUCAUCGCGUGA [Fam2.1 aminoacylation ribozyme variant],19.3,8.88,17.9,12.1,21.5,163
ACUACCCUGGUCAUCGUGUGA [Fam2.1 aminoacylation ribozyme variant],3.83,1.58,4.14,2.33,3.39,24.4
ACUACCCUGGUCAUCUAGUGA [Fam2.1 aminoacylation ribozyme variant],7.62,3.86,7.5,3.97,7.72,63.1
ACUACCCUGGUCAUUGAGUGA [Fam2.1 aminoacylation ribozyme variant],8.89,4.12,7.75,4.05,8.8,34
ACUACCCUGGUCCUCGAGUGA [Fam2.1 aminoacylation ribozyme variant],4.3,2.6,4.59,2.25,3.84,17.6
ACUACCCUGGUCGUCGAGUGA [Fam2.1 aminoacylation ribozyme variant],0.701,1.17,1.49,1.19,1.95,6.66
ACUACCCUGGUGAUCGAGUGA [Fam2.1 aminoacylation ribozyme variant],9.48,4.03,6.46,3.6,7.61,28
ACUACCUUGGUCAUCGAGUGA [Fam2.1 aminoacylation ribozyme variant],5.82,2.96,3.77,3.23,4.02,10.5
ACUCACCGAGGUCAUCGGGUG [Fam2.2 aminoacylation ribozyme variant],8.16,4.34,6.05,5.07,7.63,41.6
ACUCACCUAGAUCAUCGGGUG [Fam2.2 aminoacylation ribozyme variant],5.49,2.9,2.99,3.13,3.38,26.9
ACUCACCUAGGACAUCGGGUG [Fam2.2 aminoacylation ribozyme variant],4.88,3.36,3.82,4.87,4.64,20.1
ACUCACCUAGGUCAACGGGUG [Fam2.2 aminoacylation ribozyme variant],3.14,1.94,2.67,2.22,2.29,8.54
ACUCACCUAGGUCAGCGGGUG [Fam2.2 aminoacylation ribozyme variant],4.54,3.56,4.16,3.86,4.43,31.4

Sequence,self-aminoacylation (biotinyl-Trp-oxazolone),self-aminoacylation (biotinyl-Ile-oxazolone),self-aminoacylation (biotinyl-Met-oxazolone),self-aminoacylation (biotinyl-Val-oxazolone),self-aminoacylation (biotinyl-Leu-oxazolone),self-aminoacylation (biotinyl-Phe-oxazolone)
ACUCACCUAGGUCAUAGGGUG [Fam2.2 aminoacylation ribozyme variant],1.58,1.31,1.57,1.36,1.39,1.46
ACUCACCUAGGUCAUCGCGUG [Fam2.2 aminoacylation ribozyme variant],9.66,5.51,7.39,6.93,10.6,70
ACUCACCUAGGUCAUCGGGUU [Fam2.2 aminoacylation ribozyme variant],6.68,5.92,8.19,5.06,11.3,31.3
ACUCACCUAGGUCUUCGGGUG [Fam2.2 aminoacylation ribozyme variant],6.33,4.2,4.6,4.96,6.01,29.7
ACUCACCUAGUUCAUCGGGUG [Fam2.2 aminoacylation ribozyme variant],3.85,2.87,3.46,3.36,3.86,19.7
ACUCGCCUAGGUCAUCGGGUG [Fam2.2 aminoacylation ribozyme variant],10.9,6.84,9.99,6.73,11,62.9
ACUUCCCUGGUCAUCGAGUGA [Fam2.1 aminoacylation ribozyme variant],12.1,4.96,9.66,5.69,9.49,41.8
AGACACCUAGGUCAUCGGGUG [Fam2.2 aminoacylation ribozyme variant],4.31,3.01,3.07,2.32,3.29,20.6
AGAUUUGCUAAUAGUCGCAAG [Fam3.1 aminoacylation ribozyme variant],1.88,1.91,1.58,1.8,2.39,2.47
AGCCACCUAGGUCAUCGGGUG [Fam2.2 aminoacylation ribozyme variant],10.3,6.24,7.16,6.3,8.17,81.6
AGGCUUGCUAAUAGUCGCAAG [Fam3.1 aminoacylation ribozyme variant],2.08,2.17,2.14,1.96,2.31,3.69
AGGUUUGAUAAUAGUCGCAAG [Fam3.1 aminoacylation ribozyme variant],1.8,1.55,1.57,1.54,1.67,3.51
AGGUUUGCUAAUAAUCGCAAG [Fam3.1 aminoacylation ribozyme variant],0.725,0.899,0.753,0.949,0.822,1.91
AGGUUUGCUAAUAGACGCAAG [Fam3.1 aminoacylation ribozyme variant],0.609,0.608,0.529,0.752,0.594,0.835
AGGUUUGCUAAUAGGCGCAAG [Fam3.1 aminoacylation ribozyme variant],1.18,0.85,0.736,0.734,0.626,1.16
AGGUUUGGUAAUAGUCGCAAG [Fam3.1 aminoacylation ribozyme variant],2.22,1.82,1.72,1.41,1.77,3.19
AGUACCAUGGUCAUCGAGUGA [Fam2.1 aminoacylation ribozyme variant],8.32,4.22,6.66,4.22,7.11,29.9
AGUACCCAGGUCAUCGAGUGA [Fam2.1 aminoacylation ribozyme variant],6.61,3.36,5.45,3.2,5.05,16.6
AGUACCCUAGUCAUCGAGUGA [Fam2.1 aminoacylation ribozyme variant],6.29,3.2,4.86,3.13,4.92,24.6
AGUACCCUGAUCAUCGAGUGA [Fam2.1 aminoacylation ribozyme variant],8.64,3.22,6.82,3.5,6.72,26.6
AGUACCCUGGUCAACGAGUGA [Fam2.1 aminoacylation ribozyme variant],5.71,2.91,5.55,2.63,4.71,21.6
AGUACCCUGGUCAUCCAGUGA [Fam2.1 aminoacylation ribozyme variant],6.9,3.06,5.15,2.86,5.87,34.7
AGUACCCUGGUCCUCGAGUGA [Fam2.1 aminoacylation ribozyme variant],4.66,2.7,4.14,2.81,5.58,18.1
AGUACCCUUGUCAUCGAGUGA [Fam2.1 aminoacylation ribozyme variant],6.7,3.06,5.76,3.48,6.28,18.4
AGUCACCUAGGUCACCGGGUG [Fam2.2 aminoacylation ribozyme variant],6.49,4.07,4.49,4.47,4.38,31.7

# Source: the supplement of paper PMC9233669
